{"source": "patent US20140322759", "experiment_in_all_cases": "EMSA", "key": {"[1]": {"target": "T1, phi29 DNA polymerase E515A E515A (Bacillus phage phi29) (UniProt P03680)", "T1 sequence": "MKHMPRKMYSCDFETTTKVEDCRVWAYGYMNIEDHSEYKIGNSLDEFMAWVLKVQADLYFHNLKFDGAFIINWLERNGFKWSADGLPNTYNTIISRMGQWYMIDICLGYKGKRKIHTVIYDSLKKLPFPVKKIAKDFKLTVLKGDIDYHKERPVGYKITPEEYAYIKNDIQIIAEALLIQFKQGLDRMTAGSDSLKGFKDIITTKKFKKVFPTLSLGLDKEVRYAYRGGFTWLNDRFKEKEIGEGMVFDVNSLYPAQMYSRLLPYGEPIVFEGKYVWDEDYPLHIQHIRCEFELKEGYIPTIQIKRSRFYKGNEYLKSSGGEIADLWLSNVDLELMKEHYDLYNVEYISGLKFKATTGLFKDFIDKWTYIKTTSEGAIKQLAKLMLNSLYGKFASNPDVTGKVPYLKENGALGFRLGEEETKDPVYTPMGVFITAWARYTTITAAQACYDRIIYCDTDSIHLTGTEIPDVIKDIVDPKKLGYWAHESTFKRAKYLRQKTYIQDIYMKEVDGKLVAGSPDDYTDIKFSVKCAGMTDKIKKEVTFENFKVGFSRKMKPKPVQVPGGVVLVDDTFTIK", "conditions": "SD 56.5; unit not given (μM in assay); pH 7.9, 66 mM K-acetate, 30 C"}, "[2]": {"target": "T2, phi29 DNA polymerase G197D G197D (Bacillus phage phi29) (UniProt P03680)", "T2 sequence": "T1 sequence with G197D, A515E", "conditions": "SD 25.7; unit not given (μM in assay); pH 7.9, 66 mM K-acetate, 30 C"}, "[3]": {"target": "T3, phi29 DNA polymerase V51A V51A (Bacillus phage phi29) (UniProt P03680)", "T3 sequence": "T1 sequence with V51A, A515E", "conditions": "SD 10.8; unit not given (μM in assay); pH 7.9, 66 mM K-acetate, 30 C"}, "[4]": {"target": "T4, phi29 DNA polymerase Mut_4 M8R,V51A,M97T,G197D,E221K (Bacillus phage phi29) (UniProt P03680)", "T4 sequence": "T1 sequence with M8R, V51A, M97T, G197D, E221K, A515E", "conditions": "SD 10.6; unit not given (μM in assay); pH 7.9, 66 mM K-acetate, 30 C"}}, "note": "Where a chain is given by its changes, count along the chain named."}
{"sequence": "GATCACAGTGAGTAC / TCTATTGTACTCACTGTGATC [15-mer/21-mer primer/template]", "values": [{"measurement": "Kd", "setting": "[1]", "result": 97, "unit": "µM"}, {"measurement": "Kd", "setting": "[2]", "result": 51, "unit": "µM"}, {"measurement": "Kd", "setting": "[3]", "result": 52, "unit": "µM"}, {"measurement": "Kd", "setting": "[4]", "result": 67, "unit": "µM"}]}
